# Experiments:
# [1] = target: CHK2 (UniProt O96017); assay: fluorescence polarization; conditions: 25 mM Tris-HCl pH 8.0, 10 mM NaCl, 25 mM KCl, 5 mM MgCl2, 0.01% IGEPAL CA630, 10 ug/ml yeast tRNA, SUPERase-In; 2 nM RNA, room temperature 2 h; F-EMSA on …
# [2] = target: CHK2 (UniProt O96017); assay: F-EMSA; conditions: 25 mM Tris-HCl pH 8.0, 10 mM NaCl, 25 mM KCl, 5 mM MgCl2, 0.01% IGEPAL CA630, 10 ug/ml yeast tRNA, SUPERase-In; 2 nM RNA, room temperature 2 h; F-EMSA on …
# CHK2, sequence (O96017 whole entry): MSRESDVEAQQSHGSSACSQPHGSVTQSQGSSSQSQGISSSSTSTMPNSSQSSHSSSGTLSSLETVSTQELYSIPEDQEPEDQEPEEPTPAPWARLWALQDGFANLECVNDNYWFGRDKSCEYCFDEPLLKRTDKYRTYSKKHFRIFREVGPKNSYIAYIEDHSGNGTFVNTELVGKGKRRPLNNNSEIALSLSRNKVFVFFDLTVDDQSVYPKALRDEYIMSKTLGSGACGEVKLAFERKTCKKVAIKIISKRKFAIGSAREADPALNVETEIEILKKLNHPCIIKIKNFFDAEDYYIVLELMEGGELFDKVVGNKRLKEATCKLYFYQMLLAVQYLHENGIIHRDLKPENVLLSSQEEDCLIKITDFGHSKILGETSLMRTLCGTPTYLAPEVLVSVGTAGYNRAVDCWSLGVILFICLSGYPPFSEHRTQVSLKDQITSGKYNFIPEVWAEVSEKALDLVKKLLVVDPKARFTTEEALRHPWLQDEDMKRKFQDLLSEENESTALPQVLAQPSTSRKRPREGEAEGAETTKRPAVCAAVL
sequence,measurement,setting,value
GGGAAUGGAUCCACAUCUACGAAUUCGAUCGGUUCCAACGCUCUGUCGCCUAAGUGAACAGAUGAAGAAAAAAUAGCCCAAUAAGAGGCAACAAUCUUUCACUGCAGACUUGACGAAGCUU [C6M1],Kd,[1],299 nM
same,Kd,[2],180 nM

# From PMC3869713
